From article PMC2114734

Target: High affinity thrombin receptor of NIL hamster fibroblasts (Syrian hamster (endogenous in NIL cells))
Experiment: radioligand binding

specific 125I-thrombin binding (cpm/ug protein): 439
Substance: Human alpha-thrombin (from UniProt P00734 364-622; P00734 364-622) (enzyme)
